What all share (experiment): ITC; 19 injections of histone peptide (0.3–1.2 mM) into reader protein (22–100 µM), 298.15 K, same buffer as used in size exclusion chromatography, one-site fit, 3–5 repeats
Common to all, as to conditions: both partners purified

One assay addresses T1, KDM5A PHD3 reader domain (human, UniProt P29375 1609-1659).
T1 construct: KDM5A, human, third PHD zinc finger (PHD3)
T1 sequence: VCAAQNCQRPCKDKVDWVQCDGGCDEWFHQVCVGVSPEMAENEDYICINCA

Assay [1] concerns the target T2, SGF29 tandem tudor domain (TTD) reader (human, UniProt Q96ES7 115-293).
T2 construct: SGF29, human, tandem tudor domain; also called SGF29TTD
T2 sequence: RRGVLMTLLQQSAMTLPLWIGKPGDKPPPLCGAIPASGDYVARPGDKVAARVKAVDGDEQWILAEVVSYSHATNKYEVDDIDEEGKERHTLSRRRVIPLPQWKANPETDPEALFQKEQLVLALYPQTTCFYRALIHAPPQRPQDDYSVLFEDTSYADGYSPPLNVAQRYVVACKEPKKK

In a further assay the target is BPTF PHD reader domain (human, UniProt Q12830 2865-3033).
For another assay, the target named is T3, TAF3 PHD reader domain (human, UniProt Q5VWG9 855-915).
T3 sequence: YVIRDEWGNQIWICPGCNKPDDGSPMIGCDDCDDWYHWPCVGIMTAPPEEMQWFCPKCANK

Assay [2] addresses T4, KDM4A tandem tudor domain (TTD) reader (human, UniProt O75164 895-1011).
T4 construct: KDM4A, human, tandem tudor domain; also called KDM4ATTD
T4 sequence: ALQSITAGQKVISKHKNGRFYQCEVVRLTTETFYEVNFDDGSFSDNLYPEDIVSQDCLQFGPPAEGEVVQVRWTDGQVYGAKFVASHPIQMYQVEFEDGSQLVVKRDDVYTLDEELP

Ends that are not written are not given here.

B1: 10-mer histone H3 peptide bearing trimethyllysine at position 4 (H3K4me3) (peptide)
peptide: ARTKQTARKS
modifications: trimethyllysine (Kme3) at position 4
notes: histone H3, residues 1-10, printed as ART(Kme3/KCme3)QTARKS; also called 1–10 H3K4me3; source: synthetic peptide (solid-phase peptide synthesis, preparative HPLC)
A word on the Kd: it is the equilibrium constant for the complex coming apart. With B1, the Kd with KDM5A PHD3 reader domain came out at 0.071 ± 0.008 µM; in assay [1], 2.6 ± 0.3 µM; in the assay with TAF3 PHD reader domain, 0.084 ± 0.012 µM; in assay [2], 6.6 ± 0.8 µM. Besides, the dH with KDM5A PHD3 reader domain is -10.7 ± 0.1 kcal/mol; in assay [1] it was -8 ± 0.1 kcal/mol; with BPTF PHD reader domain, -12.4 ± 0.1 kcal/mol; in the assay with TAF3 PHD reader domain, -10.7 ± 0.1 kcal/mol; in assay [2], -13 ± 0.2 kcal/mol.

B2: 10-mer histone H3 peptide bearing trimethylthialysine at position 4 (H3KC4me3) (peptide)
peptide: ARTCQTARKS
modifications: not fully specified (residue 4)
notes: histone H3, residues 1-10, printed as ART(Kme3/KCme3)QTARKS; position 4 is a cysteine alkylated to trimethylthialysine; The letter C at position 4 stands for the alkylated cysteine (trimethylthialysine), not a free cysteine; also called 1–10 H3KC4me3
In the case of B2, the Kd worked out at 0.15 ± 0.2 µM with KDM5A PHD3 reader domain; 6.1 ± 0.7 µM in assay [1]; 3.8 ± 0.5 µM in the assay with BPTF PHD reader domain; 0.042 ± 0.007 µM with TAF3 PHD reader domain; 3.1 ± 0.6 µM in assay [2]. Moreover, the dH with KDM5A PHD3 reader domain was -9.6 ± 0.1 kcal/mol; in assay [1], -5.8 ± 0.1 kcal/mol; with BPTF PHD reader domain, -9 ± 0.1 kcal/mol; with TAF3 PHD reader domain it was -10.8 ± 0.1 kcal/mol; in assay [2] it was -14.8 ± 0.2 kcal/mol.

The values are drawn from paper PMC7221964, “Comparison of Molecular Recognition of Trimethyllysine and Trimethylthialysine by Epigenetic Reader Proteins” (Molecules, 2020).
